Several values for one entry are separate records, joined by “and”; a condition that tells them apart may be missing. Equal values may be shown once.
Experiments:
human CTLA4 (human) [1] = biological target: human CTLA4 (human) (UniProt P16410); assay: ELISA, coat human CTLA4 0.5 ug/ml; antibody 1 ug/ml
human CTLA4 (human) [2] = biological target: human CTLA4 (human) (UniProt P16410); assay: ELISA, coat human CTLA4 0.5 ug/ml; antibody 0 (blank)
human CTLA4 (human) [3] = biological target: human CTLA4 (human) (UniProt P16410); assay: ELISA on coated CTLA4, source Human (row of 8D2H2L17)
human CTLA4 (human) [4] = biological target: human CTLA4 (human) (UniProt P16410); assay: ELISA, coat CTLA4 0.5 ug/ml; antibody 1:9 (start 1 ug/ml)
human CTLA4 (human) [5] = biological target: human CTLA4 (human) (UniProt P16410); assay: ELISA, coat CTLA4 0.5 ug/ml; antibody 1:27 (start 1 ug/ml)
CTLA4-mFc [6] = assay: competitive ELISA, competitor B7-2; control run with 8D2H2L2
CTLA4-mFc, sequence (chain, as listed by the source limits assumed): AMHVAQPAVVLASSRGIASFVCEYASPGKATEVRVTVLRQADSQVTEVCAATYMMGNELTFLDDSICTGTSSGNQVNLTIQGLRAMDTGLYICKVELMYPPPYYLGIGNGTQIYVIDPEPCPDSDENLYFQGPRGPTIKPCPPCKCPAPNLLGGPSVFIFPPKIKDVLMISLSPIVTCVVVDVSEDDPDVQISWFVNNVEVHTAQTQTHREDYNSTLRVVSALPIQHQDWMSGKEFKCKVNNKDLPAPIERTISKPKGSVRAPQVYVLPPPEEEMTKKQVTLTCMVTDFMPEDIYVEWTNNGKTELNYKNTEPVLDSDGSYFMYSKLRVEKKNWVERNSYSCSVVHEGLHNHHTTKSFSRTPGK

CTLA4-mFc [7] = assay: competitive ELISA, competitor B7-1; control run with 8D2H2L15
human CTLA4 (human) [8] = biological target: human CTLA4 (human) (UniProt P16410); assay: ELISA, coat human CTLA4 0.5 ug/ml; antibody 1:9 (start 1 ug/ml)
human CTLA4 (human) [9] = biological target: human CTLA4 (human) (UniProt P16410); assay: ELISA, coat human CTLA4 0.5 ug/ml; antibody 1:27 (start 1 ug/ml)
[10] = biological target: monkey CTLA4-hFc (monkey); assay: ELISA, coat monkey CTLA4-hFc 0.25 ug/ml; antibody 1:3 (start 1 ug/ml)
[11] = biological target: monkey CTLA4-hFc (monkey); assay: ELISA, coat monkey CTLA4-hFc 0.25 ug/ml; antibody 1:9 (start 1 ug/ml)
[12] = biological target: monkey CTLA4-hFc (monkey); assay: ELISA, coat monkey CTLA4-hFc 0.25 ug/ml; antibody 1:27 (start 1 ug/ml)
[13] = biological target: monkey CTLA4-hFc (monkey); assay: ELISA, coat monkey CTLA4-hFc 0.25 ug/ml; antibody 1:81 (start 1 ug/ml)
[14] = biological target: monkey CTLA4-hFc (monkey); assay: ELISA, coat monkey CTLA4-hFc 0.25 ug/ml; antibody 1:729 (start 1 ug/ml)
CTLA4-mFc [15] = assay: competitive ELISA, CTLA4-mFc coated, competitor B7/2-His; antibody 1 µg/ml
CTLA4-mFc [16] = assay: competitive ELISA, B7/1-hFc coated (competitor), CTLA4-mFc added; antibody 5 µg/ml
CTLA4-mFc [17] = assay: competitive ELISA, CTLA4-mFc coated, competitor B7/2-His; antibody 1 µg/ml diluted 1:3
CTLA4-mFc [18] = assay: competitive ELISA, CTLA4-mFc coated, competitor B7/2-His; antibody 3 µg/ml diluted 1:27
CTLA4-mFc [19] = assay: competitive ELISA, CTLA4-mFc coated, competitor B7/2-His; antibody 3 µg/ml diluted 1:81
CTLA4-mFc [20] = assay: competitive ELISA, CTLA4-mFc coated, competitor B7/2-His; antibody 1 µg/ml diluted 1:243
CTLA4-mFc [21] = assay: competitive ELISA, B7/1-hFc coated (competitor), CTLA4-mFc added; antibody 5 µg/ml diluted 1:9
CTLA4-mFc [22] = assay: competitive ELISA, B7/1-hFc coated (competitor), CTLA4-mFc added; antibody 5 µg/ml diluted 1:81
CTLA4-mFc [23] = assay: competitive ELISA, B7/1-hFc coated (competitor), CTLA4-mFc added; antibody 5 µg/ml diluted 1:27
CTLA4-mFc [24] = assay: competitive ELISA, B7/1-hFc coated (competitor), CTLA4-mFc added; antibody 5 µg/ml diluted 1:729
CTLA4-mFc [25] = assay: competition ELISA, coat B7/1-hFc 0.2 ug/ml (competitor), CTLA4-mFc 0.3 ug/ml detected; antibody 1:3 (start 3 ug/ml)
CTLA4-mFc [26] = assay: competition ELISA, coat B7/1-hFc 0.2 ug/ml (competitor), CTLA4-mFc 0.3 ug/ml detected; antibody 1:243 (start 3 ug/ml)

control antibody 11.2.1, sequence (VH): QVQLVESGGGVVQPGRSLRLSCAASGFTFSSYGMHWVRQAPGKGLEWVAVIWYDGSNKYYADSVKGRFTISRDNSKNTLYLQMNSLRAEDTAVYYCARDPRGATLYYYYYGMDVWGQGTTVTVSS
control antibody 11.2.1, sequence (VL): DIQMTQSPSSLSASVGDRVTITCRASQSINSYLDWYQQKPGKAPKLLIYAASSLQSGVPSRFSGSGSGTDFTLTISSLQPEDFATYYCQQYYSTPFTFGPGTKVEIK
human CTLA4 (human), sequence (P16410 36-161 limits assumed): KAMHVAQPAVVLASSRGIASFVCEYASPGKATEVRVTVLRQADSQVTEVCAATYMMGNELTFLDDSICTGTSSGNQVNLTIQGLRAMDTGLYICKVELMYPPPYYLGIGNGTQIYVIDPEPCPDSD

**Q.** control antibody 11.2.1 was tested. Which absorbance at 450 nm (human CTLA4 (human) [1]) did it give?
**A.** 3.58 and 3.55

**Q.** What about the absorbance at 450 nm (human CTLA4 (human) [2]) of the same substance?
**A.** 0.057 and 0.061

**Q.** What about the EC50 (human CTLA4 (human) [3]) of the same substance?
**A.** 0.075 nM

**Q.** And the absorbance at 450 nm (human CTLA4 (human) [4])?
**A.** 2.69 and 2.44

**Q.** What about the absorbance at 450 nm (human CTLA4 (human) [5]) of the same substance?
**A.** 2.13 and 2.28

**Q.** What about the EC50 (CTLA4-mFc [6]) of the same substance?
**A.** 0.172 nM

**Q.** What about the EC50 (CTLA4-mFc [7]) of the same substance?
**A.** 2.61 nM

**Q.** And the absorbance at 450 nm (human CTLA4 (human) [8])?
**A.** 1.29 and 1.41

**Q.** What about the absorbance at 450 nm (human CTLA4 (human) [9]) of the same substance?
**A.** 2.34 and 2.29

**Q.** What about the absorbance at 450 nm [10] of the same substance?
**A.** 1.54 and 1.46

**Q.** And the absorbance at 450 nm [11]?
**A.** 1.11 and 1.05

**Q.** And the absorbance at 450 nm [12]?
**A.** 0.625 and 0.665

**Q.** What about the absorbance at 450 nm [13] of the same substance?
**A.** 0.297 and 0.313

**Q.** And the absorbance at 450 nm [14]?
**A.** 0.082 and 0.094

**Q.** What about the absorbance at 450 nm (CTLA4-mFc [15]) of the same substance?
**A.** 0.04

**Q.** What about the absorbance at 450 nm (CTLA4-mFc [16]) of the same substance?
**A.** 0.08 and 0.089

**Q.** And the absorbance at 450 nm (CTLA4-mFc [17])?
**A.** 0.05

**Q.** What about the absorbance at 450 nm (CTLA4-mFc [18]) of the same substance?
**A.** 0.676 and 0.585

**Q.** What about the absorbance at 450 nm (CTLA4-mFc [19]) of the same substance?
**A.** 1.12 and 0.965

**Q.** And the absorbance at 450 nm (CTLA4-mFc [20])?
**A.** 0.84 and 0.85

**Q.** What about the absorbance at 450 nm (CTLA4-mFc [21]) of the same substance?
**A.** 0.16 and 0.138

**Q.** And the absorbance at 450 nm (CTLA4-mFc [22])?
**A.** 0.698 and 0.66

**Q.** And the absorbance at 450 nm (CTLA4-mFc [23])?
**A.** 1.14 and 1.19

**Q.** What about the absorbance at 450 nm (CTLA4-mFc [24]) of the same substance?
**A.** 1.32 and 1.31

**Q.** And the absorbance at 450 nm (CTLA4-mFc [25])?
**A.** 0.119 and 0.133

**Q.** And the absorbance at 450 nm (CTLA4-mFc [26])?
**A.** 0.9 and 0.52
